{
  "source": "patent US20130116185A1",
  "about": "“PHOSPHATIDYLINOSITOL 3-KINASES ACTIVITY REGULATOR INCLUDING THE FIFTH ZINC FINGER DOMAIN OF FOG2” (SNU R&DB FOUNDATION, priority 2010, published 2013)",
  "molecules": {"B1": {"name": "FOG2-ZF-5-m: Mutated FOG2 with altered the fifth zinc finger domain (two histidine residues substituted with alanine) (protein)", "chain": "MSRRKQSKPRQIKRPLEDAIEDEEEECPSEETDIISKGDFPLEESFSTEFGPENLSCEEVEYFCNKGDDEGIQETAESDGDTQSEKPGQPGVETDDWDGPGELEVFQKDGERKIQSRQQLPVGTTWGPFPGKMDLNNNSLKTKAQVPMVLTAGPKWLLDVTWQGVEDNKNNCIVYSKGGQLWCTTTKAISEGEELIAFVVDFDSRLQAASQMTLTEGMYPARLLDSIQLLPQQAAMASILPTAIVNKDIFPCKSCGIWYRSERNLQAHLMYYCSGRQREAAPVSEENEDSAHQISSLCPFPQCTKSFSNARALEMHLNSHSGVKMEEFLPPGASLKCTVCSYTADSVINFHQHLFSHLTQAAFRCNHCHFGFQTQRELLQHQELHVPSGKLPRESDMEHSPSATEDSLQPATDLLTRSELPQSQKAMQTKDASSDTELDKCEKKTQLFLTNQRPEIQPTTNKQSFSYTKIKSEPSSPRLASSPVQPNIGPSFPVGPFLSQFSFPQDITMVPQASEILAKMSELVHRRLRHGSSSYPPVIYSPLMPKGATCFECNITFNNLDNYLVAKKAYCSSRWQQMAKSPEFPSVSEKMPEALSPNTGQTSINLLNPAAHSADPENPLLQTSCINSSTVLDLIGPNGKGHDKDFSTQTKKLSTSSNNDDKINGKPVDVKNPSVPLVDGESDPNKTTCEACNITFSRHETYMVHKQYYCATRHDPPLKRSASNKVPAMQRTMRTRKRRKMYEMCLPEQEQRPPLVQQRFLDVANLNNPCTSTQEPTEGLGECYHPRCDIFPGIVSKHLETSLTINKCVPVSKCDTTHSSVSCLEMDVPIDLSKKCLSQSERTTTSPKRLLDYHECTVCKISFNKVENYLAHKQNFCPVTAHQRNDLGQLDGKVFPNPESERNSPDVSYERSIIKCEKNGNLKQPSPNGNLFSSHLATLQGLKVFSEAAQLIATKEENRHLFLPQCLYPGAIKKAKGADQLSPYYGIKPSDYISGSLVIHNTDIEQSRNAENESPKGQASSNGCAALKKDSLPLLPKNRGMVIVNGGLKQDERPAANPQQENISQNPQHEDDHKSPSWISENPLAANENVSPGIPSAEEQLSSIAKGVNGSSQAPTSGKYCRLCDIQFNNLSNFITHKKFYCSSHAAEHVK", "modifications": "left off: small tags and cut ends"}},
  "key": {"p85α": {"molecular_target": "T1, p85α (Homo sapiens, UniProt P27986)", "T1 construct": "subject to the Western blot analysis using p85α (sc-1637, Santa Cruz); endogenous in cells; host or cells: Hep3B", "T1 sequence (P27986 whole entry, the tested form may be a part)": "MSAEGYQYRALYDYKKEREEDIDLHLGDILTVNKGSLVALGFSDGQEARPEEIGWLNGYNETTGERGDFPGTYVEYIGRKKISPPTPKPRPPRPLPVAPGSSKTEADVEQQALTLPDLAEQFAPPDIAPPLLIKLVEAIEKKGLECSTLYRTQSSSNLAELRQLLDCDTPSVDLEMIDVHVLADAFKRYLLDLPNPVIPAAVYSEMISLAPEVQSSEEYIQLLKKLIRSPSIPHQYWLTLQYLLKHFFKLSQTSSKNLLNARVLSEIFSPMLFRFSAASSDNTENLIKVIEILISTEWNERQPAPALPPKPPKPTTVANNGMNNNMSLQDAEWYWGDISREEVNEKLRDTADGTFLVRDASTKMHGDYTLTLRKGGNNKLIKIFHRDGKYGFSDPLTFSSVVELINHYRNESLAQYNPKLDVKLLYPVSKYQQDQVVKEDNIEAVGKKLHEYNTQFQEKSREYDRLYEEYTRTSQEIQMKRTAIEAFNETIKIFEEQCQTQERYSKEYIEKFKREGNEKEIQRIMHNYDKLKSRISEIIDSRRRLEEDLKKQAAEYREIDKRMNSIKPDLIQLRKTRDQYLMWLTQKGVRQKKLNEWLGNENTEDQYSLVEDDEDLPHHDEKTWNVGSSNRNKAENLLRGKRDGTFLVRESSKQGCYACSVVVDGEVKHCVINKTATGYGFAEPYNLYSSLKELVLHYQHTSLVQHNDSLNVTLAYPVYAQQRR", "experiment": "Interaction of FOG2 zinc finger domain with p85α (α-Flag immunoprecipitation, Western blot)", "assay_type": "binding", "details": "Hep3B cells, 2 days after transfection, FIG. 1B", "excerpt": "To reveal the region of FOG2 interacting with p85α as a subunit of PI3K, we numbered eight (8) zinc finger domains of FOG2. Then, mutated FOG2 with altered zinc finger domain (FOG-ZF-5-m and FOG-ZF-6-m) was manufactured by mutating two domains (known to interact with p85α) positioned at 413-789th amino acid residues of FOG2.\nHep3B cells were transfected with pCK-flag (control), FOG2-wt (wild type) and FOG2 mutants having modified the zinc finger domain (FOG2-ZF-5-m and FOG2-ZF-6-m). On 2 days after transfection, the lysates were obtained using the lysis buffer (20 mM Hepes (pH7.4), 100 mM NaCl, 20 mM KAc, 10 mM MgCl2, […], 1 mM Na3VO4, 5 mM NaF, 1% NPO4). The cell lysates were immunoprecipitated with the α-Flag (Sigma, A2220) and subject to the Western blot analysis using p85α (sc-1637, Santa Cruz) and α-Flag antibody (Sigma, F1804)."}, "Akt": {"test_system": "Akt", "experiment": "Akt phosphorylation by Western blot in transfected Hep3B cells after IGF-1 stimulation", "assay_type": "cell-based", "details": "FIG. 1D", "procedure": "Hep3B cells were transfected with FOG2 mutants having modified zinc finger domain to measure the effect on the Akt signaling by FOG2-ZF-5m. The Akt activity was measured by analyzed Akt phosphorylation.\nHep3B cells were transfected with pCK-flag (control), FOG2-wt (wild type) and FOG2 mutants having modified zinc finger domain (FOG2-ZF-5-m and FOG2-ZF-6-m) and stimulated with IGF-1. The expression of Akt (Cell signaling Technology, USA), pAkt (Cell signaling Technology, USA) and GAPDH(Santa cruz, USA) were measured by Western blot analysis."}, "MDA MB 231 cells [1]": {"test_system": "MDA MB 231 cells", "experiment": "Cell proliferation MTT assay", "assay_type": "cell-based", "details": "transfected with 100 ng DNA, 3 days post-transfection, FIG. 6A", "procedure": "Because the PI3K activation is critical in cell growth, the cell proliferation was analyzed to investigate the inhibitory effect of the FOG2 zinc finger domain using the MTT assay.\nMDA MB 231 cells were seeded in a 96-well plate, and transfected with 100 ng DNA of pCKflag, FOG2-wt, FOG2-ZF-5-m or FOG2-ZF-6-m using Lipofectamine 2000. On 3 days post-transfection, the MTT assay was performed.\nMDA MB 231 cells (2×10^3 cells) were seeded in a 96-well plate and treated with 4 μM each peptide for 3 days. After the treatment, 50 μl of MTT solution (2 mg/ml) was added to each well, incubated at 37° C. for 1 hr. Then, 150 μl of DMSO was added to each well and the absorbance value of each well was measured at 590 nm using a microplate reader."}, "MDA MB 231 cells [2]": {"test_system": "MDA MB 231 cells", "experiment": "Cell migration, modified Boyden chamber method", "assay_type": "cell-based", "details": "transfected 24 hr, 18 hr migration, FIG. 3A", "procedure": "MDA MB 231 cells were transfected with pCK-flag (control), FOG2-wt (wild type) and FOG2 mutants having modified zinc finger domain (FOG2-ZF-5-m and FOG2-ZF-6-m). The cell migration was then analyzed using the modified Boyden chamber method (Albini A et al., Cancer Res 1987 47:3239-45). Following the transfection for 24 hr, MDA MB 231 cells (1×10^5) were suspended in a serum-free medium and seeded in triplicate in the upper part of BD chamber ([…] pore size). The lower part was filled with the serum-free medium. Following the incubation at 37° C. for 18 hr, non-migrating cells positioned at the upper surface of filters were cleaned with a cotton swab. The migrating cells passing through the lower surface of filters were fixed with 70% ethanol and treated with the Giemsa staining solution for 50 min. Then, the cells were rinsed with water and observed under a microscope. The cell migration rate was determined by counting the number of cells present in randomly-selected six sections and the migration range was expressed as the average number of cells per a microscopic field.\nMDA MB 231 cells were incubated with 4 μM Mock (control, DMSO), 4 μM ZF-5-wt-24, 4 μM ZF-5-m-24, 4 μM ZF-5-wt-20 or 4 μM ZF-3-wt-21. After treatment, the cell migration was analyzed using the modified Boyden chamber method (Albini A et al., Cancer Res 1987 47:3239-45). After 2 days of treatment, MDA MB 231 cells (1×10^5) were suspended in the serum free medium and seeded in triplicate in the upper part of BD chamber ([…] pore size). The lower part was filled with the serum free medium. Following the incubation at 37° C. for 18 hr, non-migrating cells positioned at the upper surface of filters were cleaned with the cotton swab. The migrating cells passing through the lower side surface of filters were fixed with 70% ethanol and stained using the Giemsa stain method. The cell migration rate was determined by counting the number of cells present in randomly-selected six sections and the migration range was expressed as the average number of cells per a microscopic field."}, "PI3K": {"molecular_target": "PI3K (Homo sapiens, UniProt P27986)", "sequence (P27986 whole entry, the tested form may be a part)": "as above", "experiment": "PI3K activity in Hep3B cells transfected with FOG2 constructs (p85α immunoprecipitation, 32P-ATP/PIP2 kinase assay)", "assay_type": "cell-based", "set-up": "The cell lysates were immunoprecipitated with p85α (sc-1637, Santa Cruz) and Protein G-Sepharose beads; endogenous in cells; host or cells: Hep3B", "procedure": "To investigate the inhibitory effect to PI3K activity by FOG2 zinc finger domain, PI3K activity was analyzed using FOG2 mutants having modified zinc finger domain. Specially, it is known that IGF signaling pathway plays an important role in cancer and the increased IGF-1 level enhances the risk of various cancers in many researches.\nAccordingly, the PI3K activity was increased by incubating Hep3B cells with IGF-1 and then measured when the cells were incubated with peptides having mutated FOG2 zinc finger domain.\nAfter Hep3B cells incubation, 100 ng/ml IGF-1 (Insulin like growth factor-1) was added to the cells and incubated for 30 min.\nHep3B cells were transfected with pCK-flag (control), FOG2-wt (wild type) and FOG2 mutants having modified zinc finger domain (FOG2-ZF-5-m and FOG2-ZF-6-m). Two days later, the lysates were obtained using a lysis buffer (20 mM Hepes (pH7.4), 100 mM NaCl, 20 mM KAc, 10 mM MgCl2, 10 mM ZnCl2, 1 mM Na3VO4, 1% NPO4). The cell lysates were immunoprecipitated with p85α (sc-1637, Santa Cruz) and Protein G-Sepharose beads using the same method above. After binding to beads, the lysates were washed 2 times with the lysis buffer and one time with the wash buffer (0.1 M Tris-HCl (pH 7.4), 5 mM LiCl, and 0.1 mM Na3VO4).\nFor measurement of PI3K activity, 10 μl of sonicated PIP2 (1 μg/μl, Calbiochem), 10 μl of 100 mM MgCl2 and 1 μl of [-^32P]ATP (500 μCi/ml) were added to the kinase buffer (10 mM Tris-HCl (pH 7.4), 150 mM NaCl, 1 mM Na3VO4, 10 mM ZnCl2) and incubated at 37° C. for 30 min. After incubation, 20 μl of 6 N HCl was added to stop the reaction and PIP2 was extracted by treatment with 200 μl of methanol:chloroform (1:1) solution. The amount of radioactively labeled PIP2 in the extract was measured using a scintillator counter."}},
  "note": "Entries after “also recorded” stand apart in the source; their conditions may differ.",
  "data": [
    {"molecule": "B1", "values": [
      {"measurement": "interaction with p85α", "setting": "p85α", "value": "did not"},
      {"measurement": "Akt phosphorylation", "setting": "Akt", "value": "increased"},
      {"measurement": "effect on cell proliferation", "setting": "MDA MB 231 cells [1]", "value": "did not influence the cell proliferation"},
      {"measurement": "reduction of cell migration", "setting": "MDA MB 231 cells [2]", "value": "does not; also recorded: not observed"},
      {"measurement": "PI3K activation by IGF-1 stimulation", "setting": "PI3K; 100 ng/ml IGF-1 30 min, FIG. 1C", "value": "did not inhibit PI3K activation"},
      {"measurement": "PI3K activity", "setting": "PI3K; without IGF-1 stimulation, FIG. 5A", "value": "did not inhibit PI3K activity"}
    ]}
  ]
}
